Laboratory results published in paper PMC5022050, “The Crystal Structure of Peroxiredoxin Asp f3 Provides Mechanistic Insight into Oxidative Stress Resistance and Virulence of Aspergillus fumigatus” (Scientific Reports, 2016).

Target: the molecule itself
Experiment: AUC; sedimentation equilibrium, PBS pH 7.4, ~5, ~15 and ~25 uM protein, 10000, 20000 and 30000 rpm, 25 °C; global fit with Sedfit and Sedphat

Protein | stoichiometry N
Asp f3 wild type, recombinant, C-terminally His-tagged (enzyme, also called Aspf3 WT; WT Asp f3; source: E. coli ClearColi BL21(DE3), purified (Ni-NTA, size-exclusion on Superdex 75); not shown: His6, C-terminal, kept) MGSGLKAGDSFPSDVVFSYIPWSEDKGEITACGIPINYNASKEWADKKVILFALPGAFTPVCSARHVPEYIEKLPEIRAKGVDVVAVLAYNDAYVMSAWGKANQVTGDDILFLSDPDARFSKSIGWADEEGRTKRYALVIDHGKITYAALEPAKNHLEFSSAETVLKHL | 2
Asp f3 C31S/C61S variant, recombinant, C-terminally His-tagged (enzyme, also called serine variant; mimic of the reduced Asp f3; source: E. coli ClearColi BL21(DE3), purified (Ni-NTA, size-exclusion on Superdex 75); not shown: His6, C-terminal, kept) MGSGLKAGDSFPSDVVFSYIPWSEDKGEITASGIPINYNASKEWADKKVILFALPGAFTPVSSARHVPEYIEKLPEIRAKGVDVVAVLAYNDAYVMSAWGKANQVTGDDILFLSDPDARFSKSIGWADEEGRTKRYALVIDHGKITYAALEPAKNHLEFSSAETVLKHL | 2
